Measured values published in CN111732659A.

Columns and labels:
[1] = biological target: GPC3ΔGPI-FLAG重组蛋白 (Homo sapiens (Human)) (UniProt P51654); test: ELISA on coated GPC3ΔGPI-FLAG after serum incubation of the antibody
[2] = biological target: mCherry-GPC3 (stably expressed on HEK293T cells) (UniProt P51654); test: immunofluorescence colocalisation on HEK293T cells expressing mCherry-GPC3, confocal microscopy

decrease of antigen binding (ELISA OD450) after 72 h at 37°C in FBS against 0 h [1] [%]	皮尔森相关系数 (mCherry and Alexa Fluor 488 signals) [2]	Molecule
55.5		HN3-hFc融合抗体 (Fc fusion)
0.6	0.803	纳米抗体G64 (G64-His) (VHH, not shown: small tags and cut ends) VHH: QVQLVESGGALVQPGGSLRLSCAASGRGADTLSLRWYRQAPGKEREWVCGISWLMTTYSYEDSVKGRFTCSRDDARNTVYLQLNSLKPEDTAVYYCASRPRFLEEQLQVSSYWGQGTQVTVSS
